Test results: US7220569

Biological target: T1, Factor X analogue with the furin cleavage site Arg-Arg-Lys-Arg/Ile (rFX^RRKR/I)
T1 chain 1: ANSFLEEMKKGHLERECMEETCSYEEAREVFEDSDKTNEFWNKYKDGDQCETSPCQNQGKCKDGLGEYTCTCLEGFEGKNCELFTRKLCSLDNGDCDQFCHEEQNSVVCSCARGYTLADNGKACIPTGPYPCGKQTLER
T1 chain 2: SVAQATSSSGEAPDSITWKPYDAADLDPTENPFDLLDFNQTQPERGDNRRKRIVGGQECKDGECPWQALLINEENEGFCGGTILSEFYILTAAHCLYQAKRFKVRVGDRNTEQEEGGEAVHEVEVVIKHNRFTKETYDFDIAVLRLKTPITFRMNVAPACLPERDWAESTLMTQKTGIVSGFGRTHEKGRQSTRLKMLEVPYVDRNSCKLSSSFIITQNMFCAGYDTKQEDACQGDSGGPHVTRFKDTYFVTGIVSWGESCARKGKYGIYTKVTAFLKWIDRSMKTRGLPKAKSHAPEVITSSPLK

B1: rfurin deltaCys-spacer-10xHis (purified r-furin derivative) (protein)
chain: DVYQEPTDPKFPQQWYLSGVTQRDLNVKAAWAQGYTGHGIVVSILDDGIEKNHPDLAGNYDPGASFDVNDQDPDPQPRYTQMNDNRHGTRCAGEVAAVANNGVCGVGVAYNARIGGVRMLDGEVTDAVEARSLGLNPNHIHIYSASWGPEDDGKTVDGPARLAEEAFFRGVSQGRGGLGSIFVWASGNGGREHDSCNCDGYTNSIYTLSISSATQFGNVPWYSEACSSTLATTYSSGNQNEKQIVTTDLRQKCTESHTGTSASAPLAAGIIALTLEANKNLTWRDMQHLVVQTSKPAHLNANDWATNGVGRKVSHSYGYGLLDAGAMVALAQNWTTVAPQRKCIIDILTEPKDIGKRLEVRKTVTACLGEPNHITRLEHAQARLTLSYNRRGDLAIHLVSPMGTRSTLLAARPHDYSADGFNDWAFMTTHSWDEDPSGEWVLEIENTSEANNYGTLTKFTLVLYGTAPEG
For B1, the FXa activity (mU/ml), chromogenic substrate S2337, incubation 0 hours was < 25 mU/ml, the FXa activity (mU/ml), chromogenic substrate S2337, incubation 6 hours was 56 mU/ml and the FXa activity (mU/ml), chromogenic substrate S2337, incubation 24 hours was 101 mU/ml. For the same protein, the FXa activity (mU/ml), chromogenic substrate S2337, incubation 48 hours was 124 mU/ml, the FXa activity (mU/ml), chromogenic substrate S2337, incubation 72 hours was 133 mU/ml and the “conversion of the heavy chain to the activated form after 72 hours at 37 C (Western blot)” value was “about 50% of the starting material (HC) have been converted to the activated form”. It also gave a specific activity (mU/µg), incubation 0 hours of 0 mU/µg, a specific activity (mU/µg), incubation 6 hours of 80 mU/µg and a specific activity (mU/µg), incubation 24 hours of 144 mU/µg. For the same protein, the specific activity (mU/µg), incubation 48 hours was 177 mU/µg and the specific activity (mU/µg), incubation 72 hours was 190 mU/µg.
